Experimental data from publication PMC2716658 (Nature structural & molecular biology, 2009).

B1: Sra1 (natural protein)
chain: MAAQVTLEDALSNVDLLEELPLPDQQPCIEPPPSSLLYQPNFNTNFEDRNAFVTGIARYIEQATVHSSMNEMLEEGQEYAVMLYTWRSCSRAIPQVKCNEQPNRVEIYEKTVEVLEPEVTKLMNFMYFQRNAIERFCGEVRRLCHAERRKDFVSEAYLITLGKFINMFAVLDELKNMKCSVKNDHSAYKRAAQFLRKMADPQSIQESQNLSMFLANHNKITQSLQQQLEVISGYEELLADIVNLCVDYYENRMYLTPSEKHMLLKVMGFGLYLMDGSVSNIYKLDAKKRINLSKIDKYFKQLQVVPLFGDMQIELARYIKTSAHYEENKSRWTCTSSGSSPQYNICEQMIQIREDHMRFISELARYSNSEVVTGSGRQEAQKTDAEYRKLFDLALQGLQLLSQWSAHVMEVYSWKLVHPTDKYSNKDCPDSAEEYERATRYNYTSEEKFALVEVIAMIKGLQVLMGRMESVFNHAIRHTVYAALQDFSQVTLREPLRQAIKKKKNVIQSVLQAIRKTVCDWETGHEPFNDPALRGEKDPKSGFDIKVPRRAVGPSSTQLYMVRTMLESLIADKSGSKKTLRSSLEGPTILDIEKFHRESFFYTHLINFSETLQQCCDLSQLWFREFFLELTMGRRIQFPIEMSMPWILTDHILETKEASMMEYVLYSLDLYNDSAHYALTRFNKQFLYDEIEAEVNLCFDQFVYKLADQIFAYYKVMAGSLLLDKRLRSECKNQGATIHLPPSNRYETLLKQRHVQLLGRSIDLNRLITQRVSAAMYKSLELAIGRFESEDLTSIVELDGLLEINRMTHKLLSRYLTLDGFDAMFREANHNVSAPYGRITLHVFWELNYDFLPNYCYNGSTNRFVRTVLPFSQEFQRDKQPNAQPQYLHGSKALNLAYSSIYGSYRNFVGPPHFQVICRLLGYQGIAVVMEELLKVVKSLLQGTILQYVKTLMEVMPKICRLPRHEYGSPGILEFFHHQLKDIVEYAELKTVCFQNLREVGNAILFCLLIEQSLSLEEVCDLLHAAPFQNILPRVHVKEGERLDAKMKRLESKYAPLHLVPLIERLGTPQQIAIAREGDLLTKERLCCGLSMFEVILTRIRSFLDDPIWRGPLPSNGVMHVDECVEFHRLWSAMQFVYCIPVGTHEFTVEQCFGDGLHWAGCMIIVLLGQQRRFAVLDFCYHLLKVQKHDGKDEIIKNVPLKKMVERIRKFQILNDEIITILDKYLKSGDGEGTPVEHVRCFQPPIHQSLASS
B2: WAVE1 (subunit of the recombinant human WRC) (natural protein)
chain: MPLVKRNIDPRHLCHTALPRGIKNELECVTNISLANIIRQLSSLSKYAEDIFGELFNEAHSFSFRVNSLQERVDRLSVSVTQLDPKEEELSLQDITMRKAFRSSTIQDQQLFDRKTLPIPLQETYDVCEQPPPLNILTPYRDDGKEGLKFYTNPSYFFDLWKEKMLQDTEDKRKEKRKQKQKNLDRPHEPEKVPRAPHDRRREWQKLAQGPELAEDDANLLHKHIEVANGPASHFETRPQTYVDHMDGSYSLSALPFSQMSELLTRAEERVLVRPHEPPPPPPMHGAGDAKPIPTCISSATGLIENRPQSPATGRTPVFVSPTPPPPPPPLPSALSTSSLRASMTSTPPPPVPPPPPPPATALQAPAVPPPPAPLQIAPGVLHPAPPPIAPPLVQPSPPVARAAPVCETVPVHPLPQGEVQGLPPPPPPPPLPPPGIRPSSPVTVTALAHPPSGLHPTPSTAPGPHVPLMPPSPPSQVIPASEPKRHPSTLPVISDARSVLLEAIRKGIQLRKVEEQREQEAKHERIENDVATILSRRIAVEYSDSEDDSEFDEVDWLE

Assays:
[1] = molecular target: B2; test: AUC
Sra1 = molecular target: B1; test: co-expression and purification of the complex

Row | stoichiometry N [1] | binding result (Sra1) | Binder
1 | 1 |  | B1
2 | 1 |  | HSPC300 (natural protein) MAGQEDPVQREIHQDWANREYIEIITSSIKKIADFLNSFDMSCRSRLATLNEKLTALERRIEYIEARVTKGETLT
3 | 1 |  | Nap1 (natural protein) MSRSVLQPSQQKLAEKLTILNDRGVGMLTRLYNIKKACGDPKAKPSYLIDKNLESAVKFIVRKFPAVETRNNNQQLAQLQKEKSEILKNLALYYFTFVDVMEFKDHVCELLNTIDVCQVFFDITVNFDLTKNYLDLIITYTTLMILLSRIEERKAIIGLYNYAHEMTHGASDREYPRLGQMIVDYENPLKKMMEEFVPHSKSLSDALISLQMVYPRRNLSADQWRNAQLLSLISAPSTMLNPAQSDTMPCEYLSLDAMEKWIIFGFILCHGILNTDATALNLWKLALQSSSCLSLFRDEVFHIHKAAEDLFVNIRGYNKRINDIRECKEAAVSHAGSMHRERRKFLRSALKELATVLSDQPGLLGPKALFVFMALSFARDEIIWLLRHADNMPKKSADDFIDKHIAELIFYMEELRAHVRKYGPVMQRYYVQYLSGFDAVVLNELVQNLSVCPEDESIIMSSFVNTMTSLSVKQVEDGEVFDFRGMRLDWFRLQAYTSVSKASLGLADHRELGKMMNTIIFHTKMVDSLVEMLVETSDLSIFCFYSRAFEKMFQQCLELPSQSRYSIAFPLLCTHFMSCTHELCPEERHHIGDRSLSLCNMFLDEMAKQARNLITDICTEQCTLSDQLLPKHCAKTISQAVNKKSKKQTGKKGEPEREKPGVESMRKNRLVVTNLDKLHTALSELCFSINYVPNMVVWEHTFTPREYLTSHLEIRFTKSIVGMTMYNQATQEIAKPSELLTSVRAYMTVLQSIENYVQIDITRVFNNVLLQQTQHLDSHGEPTITSLYTNWYLETLLRQVSNGHIAYFPAMKAFVNLPTENELTFNAEEYSDISEMRSLSELLGPYGMKFLSESLMWHISSQVAELKKLVVENVDVLTQMRTSFDKPDQMAALFKRLSSVDSVLKRMTIIGVILSFRSLAQEALRDVLSYHIPFLVSSIEDFKDHIPRETDMKVAMNVYELSSAAGLPCEIDPALVVALSSQKSENISPEEEYKIACLLMVFVAVSLPTLASNVMSQYSPAIEGHCNNIHCLAKAINQIAAALFTIHKGSIEDRLKEFLALASSSLLKIGQETDKTTTRNRESVYLLLDMIVQESPFLTMDLLESCFPYVLLRNAYHAVYKQSVTSSA
4 |  | binds | B2
5 | 1 |  | Abi2 (subunit of the recombinant human WRC) (natural protein) MAELQMLLEEEIPGGRRALFDSYTNLERVADYCENNYIQSADKQRALEETKAYTTQSLASVAYLINTLANNVLQMLDIQASQLRRMESSINHISQTVDIHKEKVARREIGILTTNKNTSRTHKIIAPANLERPVRYIRKPIDYTILDDIGHGVKWLLRFKVSTQNMKMGGLPRTTPPTQKPPSPPMSGKGTLGRHSPYRTLEPVRPPVVPNDYVPSPTRNMAPSQQSPVRTASVNQRNRTYSSSGSSGGSHPSSRSSSRENSGSGSVGVPIAVPTPSPPSVFPAPAGSAGTPPLPATSASAPAPLVPATVPSSTAPNAAAGGAPNLADGFTSPTPPVVSSTPPTGHPVQFYSMNRPASRHTPPTIGGSLPYRRPPSITSQTSLQNQMNGGPFYSQNPVSDTPPPPPPVEEPVFDESPPPPPPPEDYEEEEAAVVEYSDPYAEEDPPWAPRSYLEKVVAIYDYTKDKEDELSFQEGAIIYVIKKNDDGWYEGVMNGVTGLFPGNYVESIMHYSE
